# Assay results as given in the Immune Epitope Database (IEDB).
# Molecular target: HLA-A*02:01
# Test: IEDB peptide-MHC binding, purified MHC/competitive/radioactivity; filed as Kd, often an IC50 or EC50 that approximates it; ≥ and ≤ were set here for values at or beyond the usual limits of such assays
# Details: source organism: Homo sapiens
row,Kd,Sequence
1,≥ 50000 nM,ALTGTEKLI
2,6250 nM,CLVGAPFASLC
3,≥ 5000 nM,FLPRHRDTGI
4,≥ 50000 nM,FLPRHRDTGIL
5,10 nM,FMIAATYNFAV
6,96 nM,GLLECCARCLV
7,4540 nM,KVCGSNLLSI
8,1000 nM,LLVFACSAVPV
9,1610 nM,LVFACSAVPV
10,455 nM,LVLFACSAV
11,1920 nM,LVSLLTFMI
12,29 nM,RMYGVLPWI
13,9.4 nM,SLLTFMIAA
14,2380 nM,TLSKIFKL
15,2630 nM,TLVSLLTFMI
16,≥ 50000 nM,VVHFFKNIV
17,≥ 50000 nM,WLGHPDKFV
18,≥ 50000 nM,WLLVFACSA

# Further lines, the sequence ahead of its results:
row,Sequence,Kd
1,ALTGTEKL,≥ 50000 nM
2,ALTVVWLL,7140 nM
3,FACSAVPVYI,781 nM
4,FLYGALLL,143 nM
5,FLYGALLLA,2.6 nM
6,GLCFFGVAL,4170 nM
7,HLFIAAFV,1090 nM
8,IAATYNFAV,93 nM
9,QMTFHLFI,1850 nM
10,QMTFHLFIA,1670 nM
11,SLCADARMYGV,357 nM
12,SLSRFSWGA,909 nM
13,VIHAFQYVI,1220 nM
14,VLPWIAFPGKV,1280 nM
15,WLGHPDKFVGI,≥ 25000 nM
16,WLLVFACSAV,1350 nM
17,YALTVVWLL,119 nM
18,YALTVVWLLV,658 nM
